Source: the supplement of paper PMC9170038

System: MS2 coat protein
Test: apparent KD of MS2 coat protein; designed switch direction (-1 OFF switch, 1 ON switch): 1; higher = weaker reporter binding
In short: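 Transcription of designed RNA switches on Illumina chips was done by stalled E. coli RNA polymerase. SNAP-549-labelled MS2 coat protein was then titrated in doubling steps from 0.7 or 1.5 nM to 3 µM, with steps of 0.8–1.5 h at the lowest and 10–20 min at the highest concentration. The per-design median over clusters of curve-fitted normalised fluorescence is reported as apparent KD.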

[1] = input ligand: microRNA oligo, concentration not stated
[2] = Eterna round: R95, input ligand: FMN 200 uM
[3] = Eterna round: R95, input ligand: microRNA oligo, concentration not stated
[4] = Eterna round: R95, input ligand: none

Row | Sequence | apparent KD of MS2 coat protein (input ligand: FMN 200 uM) | apparent KD of MS2 coat protein [1] | apparent KD of MS2 coat protein (input ligand: none) | apparent KD of MS2 coat protein [2] | apparent KD of MS2 coat protein [3] | apparent KD of MS2 coat protein [4]
1 | AGAUCAUGACGAGGAUAUGGUACAUGAGGAUCACCCAUGUAUGUACCACGACGCGUACGUCGAAUCCAGAAGGCGUCGUGAUCA [Mat - Same State NG 2 - JL mod - D16] (Eterna round: R96, puzzle: Same State NG 2) | 19 nM | 66.1 nM | 99.3 nM | – | – | –
2 | AGAUCAUGACGAGGAUAUGGUACAUGAGGAUCACCCAUGUAUGUAUCAUAACGCGAAUGACGAAACCAGAAGGCGUCGUGGUCA [JL SSNG2 1.11] (Eterna round: R96, puzzle: Same State NG 2) | 10.2 nM | 14.6 nM | 14.9 nM | – | – | –
3 | AGAUCUCCUCUAGGAUAUCCCUAACAUGAGGAUCACCCAUGUCCGAAUUGCAGACAUAGGCCGAGGGAGAAGGAGAAACCGUCG [Eternabot solution 41] (Eterna round: R96, puzzle: Same State NG 2) | 742 nM | 576 nM | 856 nM | – | – | –
4 | AGAUGUUAAUCAGGAUAUGGGCACAUGAGGAUCACCCAUGUAAAUUCGAUACUAUGUGGUCACGUCUAGAAGGGAUGGCUAACA [SameState NG2 #82] (Eterna round: R96, puzzle: Same State NG 2) | 189 nM | 158 nM | 250 nM | – | – | –
5 | AGCCGAGACACAGGAUAUACAUGUAUACAUGAGGAUCACCCAUGUAGCAACACGUGGUAGUGAUUGUAGAAGGGUGCUCGGCGC [Omei SS(NG)2 Cv13] (Eterna round: R96, puzzle: Same State NG 2) | 20.4 nM | 32 nM | 36.8 nM | – | – | –
6 | AGCCGAGACUGAGGAUAUUUGUAUCUACAUGAGGAUCACCCAUGUAGCGUCACGUGGUAGUGAUCGAAGAAGGCAGCUCGGCGC [MOD3 of Omei's SS(NG)2 Cv2] (Eterna round: R96, puzzle: Same State NG 2) | 11.1 nM | 11.2 nM | 21.9 nM | – | – | –
7 | AGCGAAAGCAGUCACAUGAGGAUCACCCAUGUAUUAACUAUUGAGGAUAUGCAGCGACGGGUGUAGCAGAAGGCAGUGAGAAGG [Eternabot solution 30] (Eterna round: R96, puzzle: Same State NG 3) | 54.4 nM | 52.1 nM | 61.1 nM | – | – | –
8 | AGCUAGUACCGAGGAUAUACGUACAUGAGGAUCACCCAUGUAUACAUGAAAUAAUGAGACUACAUGUAGAAGGCGGUACUAGCA [Mat - Same State NG 2 - JL mod - D50] (Eterna round: R96, puzzle: Same State NG 2) | 14.2 nM | 33.5 nM | 48.7 nM | – | – | –
9 | AGCUAUCGAAAACGAUAGCAAAAGCGUGUACAUGAGGAUCACCCAUGUCAUGUACAAGCUUUUUGCUCGUCUUAAAA [Zipper 23 - 6] (puzzle: Sensor for hsa-mir-208a) | – | – | – | 34 nM | 14.4 nM | 41.8 nM
10 | AGCUAUCGAAAACGAUAGCAUAAGCAUGUACAUGAGGAUCACCCAUGUCAUGUACAAGCUUUUUGCUCGUCUUAAAA [JL zipper 27] (Eterna round: R96, puzzle: Sensor for hsa-mir-208a) | 411 nM | 14.3 nM | 426 nM | – | – | –
11 | AGCUAUUAAUCAGGAUAUAGGGACAUGAGGAUCACCCAUGUAUACAUGAUGAAAUGUGAUCACGUCUAGAAGGGAUUACUAACA [SameState NG2 #40] (Eterna round: R96, puzzle: Same State NG 2) | 236 nM | 299 nM | 134 nM | – | – | –
12 | AGCUAUUAAUCAGGAUAUAGGGACAUGAGGAUCACCCAUGUAUACAUGAUGAAAUGUGGUCACGUCUAGAAGGGAUUACUAACA [SameState NG2 #41] (Eterna round: R96, puzzle: Same State NG 2) | 150 nM | 184 nM | 262 nM | – | – | –
13 | AGCUAUUAAUCAGGAUAUGGUCACAUGAGGAUCACCCAUGUGUAGAUGAUAAAAUGUGGUCAAGACUAGAAGGGAUUGCUAACA [SameState NG2 #62] (Eterna round: R96, puzzle: Same State NG 2) | 125 nM | 49.3 nM | 95.9 nM | – | – | –
14 | AGCUAUUACGCAGGAUAUAGGGACAUGAGGAUCACCCAUGUGUACAUGAGUAAAUGUGAUCACGUCUAGAAGGGUGUACUAACA [SameState NG2 #37] (Eterna round: R96, puzzle: Same State NG 2) | 684 nM | 326 nM | 321 nM | – | – | –
15 | AGCUGUGGAAAACUAUAGCAAAAGUAUGUACAUGAGGAUCACCCAUGUCAUGUACAAGCUUUUUGCUCGUCUUAAAA [ak 5 mod of one Eli's designs.] (puzzle: Sensor for hsa-mir-208a) | – | – | – | 42.4 nM | 18.7 nM | 90.4 nM
16 | AGGAAACAUGAGGAUCACCCAUGUAUCGAGCCGCGAGGAUAUGGGUAUCAAAGGCGAGGAUCAGAAGGUGCAGGCG [Eseddierve] (puzzle: Same State 1) | – | – | – | 235 nM | 54.9 nM | 153 nM

Row | Sequence | apparent KD of MS2 coat protein (input ligand: FMN 200 uM) | apparent KD of MS2 coat protein [1] | apparent KD of MS2 coat protein (input ligand: none) | apparent KD of MS2 coat protein [2] | apparent KD of MS2 coat protein [3] | apparent KD of MS2 coat protein [4]
17 | AGGCUCAGACGAGGAUAUAUGUCUCGAGCUUCGGCUCGAGACAUGAGGAUCACCCAUGUAAUAACAUAGAAGGCGUCUGAGCCA [SSNG2/1-A1] (Eterna round: R96, puzzle: Same State NG 2) | 15.7 nM | 24.9 nM | 37 nM | – | – | –
18 | AGGCUCAGACGAGGAUAUGGUCAUGGCGCUUCGGCGCAUACAUGAGGAUCACCCAUGUAGGGUGAUCAGAAGGUGUCUGAGCCA [SSNG2/9-B1] (Eterna round: R96, puzzle: Same State NG 2) | 171 nM | 720 nM | 892 nM | – | – | –
19 | AGUAGUUUAACAUGAGGAUCACCCAUGUAUCUAUCUGUAACCUAGGAUAUGGACGUUGUAUUUAACCAGAAGGAGGAUCGUUUA [JR_SSNG3_Sub046] (Eterna round: R96, puzzle: Same State NG 3) | – | 22.7 nM | – | – | – | –
20 | AGUCCAGCAUGAGCUGGACAAAAGCAUGUACAUGAGGAUCACCCAUGUCAUGUACAAGCUUUUUGCUCGUCUUAAAA [Mat - hsa-mir-208a - Mod of JL - D1] (puzzle: Sensor for hsa-mir-208a) | – | – | – | 512 nM | 16.7 nM | 627 nM
21 | AGUCCAGCAUGAGCUGGACAAAAGCAUGUACAUGAGGAUCACCCAUGUUCAUGUACAAGCUUUUUGCUCGUCUUAAG [Mat - hsa-mir-208a - Mod of JL - 63] (puzzle: Sensor for hsa-mir-208a) | – | – | – | 568 nM | 18 nM | 802 nM
22 | AGUCCAGCCUGAGCUGGACAAAAGCAUGUACAUGAGGAUCACCCAUGUCAUGUACAAGCUUUUUGUUCGUCUUAAUA [Zipper 49 - 13] (puzzle: Sensor for hsa-mir-208a) | – | – | – | 258 nM | 14.6 nM | 350 nM
23 | AGUCCAGCCUGAGCUGGACAAAAGCAUGUACAUGAGGAUCACCCAUGUUCAUGUACAAGCUUUUUGCUCGUCUUAGG [salish99_208a_r3_062] (puzzle: Sensor for hsa-mir-208a) | – | – | – | 375 nM | 21.8 nM | 686 nM
24 | AGUCCAGCCUGAGCUGGACAAAAGCAUGUACAUGAGGAUCACCCAUGUUCAUGUACAAGCUUUUUGCUCGUCUUAUC [salish99_208a_r3_058] (puzzle: Sensor for hsa-mir-208a) | – | – | – | 578 nM | 16.6 nM | 677 nM
25 | AGUCCAGCCUGAGCUGGACAAAAGCAUGUACAUGAGGAUCACCCAUGUUCAUGUACAAGCUUUUUGCUCGUCUUGGA [salish99_208a_r3_103x] (puzzle: Sensor for hsa-mir-208a) | – | – | – | 350 nM | 16.2 nM | 505 nM
26 | AGUCCAGCCUGAGCUGGACAAAAGCAUGUACAUGAGGAUCACCCAUGUUCAUGUAUAAGCUUUUUGCUCGUCUUAAA [Zipper 52 - 11] (puzzle: Sensor for hsa-mir-208a) | – | – | – | 18.5 nM | 10.2 nM | 17.2 nM
27 | AGUCCAGCCUGAGCUGGACAAAAGCGUGUACAUGAGGAUCACCCAUGUCAUGUACAAGCUUUUUGCUCGUCUUAAUA [Zipper 49 - 6] (puzzle: Sensor for hsa-mir-208a) | – | – | – | 106 nM | 21.2 nM | 83.1 nM
28 | AGUCCAGCGAGAGCUGGACAAAAGCAUGUACAUGAGGAUCACCCAUGUCAUGUACAAGCUUUUUGCUCGUCUUAAAA [Mat - hsa-mir-208a - Mod of JL - D5] (puzzle: Sensor for hsa-mir-208a) | – | – | – | 332 nM | 13.5 nM | 618 nM
29 | AUAAAACAUGAGGAUCACCCAUGUCAACAAAGUCGAGGAUAUGGGCAAAUAAAAUAAGAACCAGAAGGCGUAUAAU [salish99_ss1_r3_034] (puzzle: Same State 1) | – | – | – | – | 341 nM | –
30 | AUAAAACAUGAGGAUCACCCAUGUCAACAAAGUCGAGGAUAUGGGCAAAUAAAAUAAGUACCAGAAGGCGAAUAAU [salish99_ss1_r3_017] (puzzle: Same State 1) | – | – | – | 34.1 nM | 106 nM | 108 nM
31 | AUAAAACAUGAGGAUCACCCAUGUCAACAAAGUCGAGGAUAUUGGCAAAUAAAAUAAGAACCAGAAGGCGAAUAAU [salish99_ss1_r3_050] (puzzle: Same State 1) | – | – | – | 17.5 nM | 23.1 nM | 23.4 nM
